Patent US20060286112A1 (published 2006)

Assays:
[1] = molecular target: T1, human VLA-1 (alpha 1/beta 1, CD49a/CD29) on IL-2 stimulated human PBMC / T cells (human, UniProt P56199 29-1179; P05556 21-798); test: cell-based or functional assay
[2] = molecular target: T1, human VLA-1 (alpha 1/beta 1, …); test: cell-based or functional assay; remark: listed apart in the source
[3] = molecular target: T1, human VLA-1 (alpha 1/beta 1, …); test: cell-based or functional assay; remark: listed apart in the source
[4] = molecular target: T2, mouse VLA-1 on mouse splenocytes (mouse, UniProt Q3V3R4 29-1179; P09055 21-798); test: FACS on mouse splenocytes
T2 construct: whole, on cells; native protein on primary cells

[5] = molecular target: T3, human VLA-1 α1 subunit (CD49a), full-length, on transfected CHO cells (human, UniProt P56199 29-1179); test: cell-based or functional assay
[6] = molecular target: T1, human VLA-1 (alpha 1/beta 1, …); test: cell-based or functional assay; remark: listed apart in the source
[7] = molecular target: T3, human VLA-1 α1 subunit (CD49a), …; test: cell-based or functional assay; remark: listed apart in the source
[8] = molecular target: T4, human CD49a I domain I11F (human, UniProt P56199 151-364, I11F); test: ELISA on secreted mutant I domain
T4 construct: domain: I domain; not shown: myc and His tags

[9] = molecular target: T5, human CD49a I domain E48K (human, UniProt P56199 151-364, E48K); test: ELISA on secreted mutant I domain
T5 construct: domain: I domain; not shown: myc and His tags

[10] = molecular target: T6, human CD49a I domain E66A (human, UniProt P56199 151-364, E66A); test: ELISA on secreted mutant I domain
T6 construct: domain: I domain; not shown: myc and His tags

[11] = molecular target: T7, human CD49a I domain K88N (human, UniProt P56199 151-364, K88N); test: ELISA on secreted mutant I domain
T7 construct: domain: I domain; not shown: myc and His tags

[12] = molecular target: T8, human CD49a I domain with residues 91-96 VQRGGR replaced by mouse GRRGGL (human, UniProt P56199 151-364, V91G; Q92R; R96L); test: ELISA on secreted mutant I domain
T8 construct: domain: I domain; also called V91G, Q92R, R96L; not shown: myc and His tags

[13] = molecular target: T9, human CD49a I domain K142Q (human, UniProt P56199 151-364, K142Q); test: ELISA on secreted mutant I domain
T9 construct: domain: I domain; text prints KI42Q once; not shown: myc and His tags

[14] = molecular target: T10, human CD49a I domain S162H (human, UniProt P56199 151-364, S162H); test: ELISA on secreted mutant I domain
T10 construct: domain: I domain; not shown: myc and His tags

[15] = molecular target: T11, human CD49a I domain T204A (human, UniProt P56199 151-364, T204A); test: ELISA on secreted mutant I domain
T11 construct: domain: I domain; not shown: myc and His tags

[16] = molecular target: T3, human VLA-1 α1 subunit (CD49a), …; test: FACS on CHO-α1 cells
[17] = molecular target: T1, human VLA-1 (alpha 1/beta 1, …); test: FACS on IL-2 stimulated human PBMC

B1: 1.7 (antibody, V domains shown)
VH: QVQLQESGPGLVKPSQTLSLTCTVSGGSISRGNYYWSWIRQHPGKGLEWIGYIFYSGSTYYNPSLKSRVTISVDTSKNQFSLKLSSVTAADTAVYYCARDGYGMDVWGQGTTVTVSS
VL: EIVLTQSPGTLSLSPGERATLSCRASQSVSSSYLVWYQQKPGQAPRLLLYDASSRATGIPDRFSGSGSGTDFTLTISRLEPEDFAVYYCQQYGNSPLTFGGGTKVEIK
notes: human IgG2 or IgG4; also called antibody 1.7
% adhesion of IL-2 activated T cells to collagen IV vs no antibody, 10 µg/ml, +PMA [1]: 33.8% | % adhesion of IL-2 activated T cells to collagen IV vs no antibody, 10 µg/ml, -PMA [1]: 57% | % adhesion of T cells to collagen IV vs no antibody, 0.5 nM mAb, no PMA [2]: 36.9% | % adhesion of T cells to collagen IV vs no antibody, 0.5 nM mAb, 10 ng/ml PMA [3]: 74.5% | % adhesion of T cells to collagen IV vs no antibody, 5 nM mAb, 10 ng/ml PMA [3]: 44.1% | binding result [4]: binds

B2: 3.9 (antibody, V domains shown)
VH: QVQLVESGGGVVQPGRSLRLSCAASGFTFSSYGMHWVRQAPGKGLEWVAVIWYDGSNKYYADSVKGRFTISRDNSKNTLYLQMNSLRAEDTAVYYCARDNGAMVRGVIISYYYGMDVWGQGTTVTVSS
VL: SYDLTQPSSVSVSPGQTASIACSGDRLGNKYACWYQQKPGQSPVLVIYKDSKRPSGIPERFSGSNSGNTATLTISGTQAMDEADYYCQAWDSSTVVFGGGTKLTVL
notes: human IgG2 or IgG4
relative inhibition at an optimal concentration, CHO-VLA-1 adhesion to collagen IV [5]: > 80% | T cell adhesion to immobilized collagen IV, relative estimated IC50 [6]: > 5 nM | IC50, adhesion of CHO-VLA-1 cells to collagen IV [7]: 0.38 nM | % adhesion of IL-2 activated T cells to collagen IV vs no antibody, 10 µg/ml, +PMA [1]: 24.6% | % adhesion of IL-2 activated T cells to collagen IV vs no antibody, 10 µg/ml, -PMA [1]: 45.8% | % adhesion of T cells to collagen IV vs no antibody, 0.5 nM mAb, no PMA [2]: 91.5% | % adhesion of T cells to collagen IV vs no antibody, 5 nM mAb, no PMA [2]: 68% | % adhesion of T cells to collagen IV vs no antibody, 0.5 nM mAb, 10 ng/ml PMA [3]: 91.9% | % adhesion of T cells to collagen IV vs no antibody, 5 nM mAb, 10 ng/ml PMA [3]: 99.6% | binding result [8]: binds | binding result [9]: no binding | binding result [10]: binds | binding result [11]: binds | binding result [12]: binds | binding result [13]: binds | binding result [14]: binds | binding result [15]: binds

B3: 7.38 (antibody, V domains shown)
VH: QVQLQESGPGLVKPSETLSLTCTVSGGSFSSYYWSWIRQPAGKGLEWIGRIYTSGSTYYNPSLKSRVTMSVDTSKNQFSLKLNSVTAADTAVYYCAREGYDFWNDYYNYYYGMDVWGQGTTVTVS
VL: EIVLTQSPGTLSLSPGERATLSCRASQSVSSRYLAWYQQKPGQAPRLLIYGASSRATGIPDRFSGSGSGTDFTLTISRLEPEDFAVYYCQQYGSAFTFGGGTKVEIK
notes: human IgG2 or IgG4
binding result [16]: binds

B4: 3.2 (antibody, V domains shown)
VH: QVQLVESGGGVVQPGRSLRLSCAASGFTFSSYGIHWVRQAPGKGLEWVAVIWYDGSDIYYADSVKGRFTISRDNSKNTLYLQMNSLRAEDTALYYCARESSGWTFDYWGQGTLVTVSS
VL: QSALTQPASVSGSPGQSITISCTGTSSDVGGYNYVSWYQQHPGKAPKLMIYEVSNRPSGISNRFSGSKSGNTASLTISGLQAEDEADYYCSSYTSSSTIIFGGGTKLTVL
notes: human IgG2 or IgG4
binding result [17]: binds
